Measured values: the supplement of paper PMC9112550, “Optimization of the antimicrobial peptide Bac7 by deep mutational scanning” (BMC Biology, 2022)

Test system: Escherichia coli TOP10
Assay: shrunken log2 fold change of peptide-encoding DNA abundance (4.5 h post-induction vs induction); higher = less antimicrobial activity (less host growth inhibition)
Settings: time post-induction: 4.5 h; library: site-saturation at positions 5, 18, 19, 20
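Note: peptides expressed intracellularly from a pBAD plasmid library in pooled LB shake-flask culture, induced with 0.3% L-arabinose, DNA abundance read by NGS, three biological replicates, DESeq2 with apeglm shrinkage.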

Sequence	shrunken log2 fold change
RRIRGRPPRLPRPRPRPNDEPRP	0.482
RRIRGRPPRLPRPRPRPNDQPRP	0.265
RRIRGRPPRLPRPRPRPNDRPRP	0.288
RRIRGRPPRLPRPRPRPNEIPRP	0.559
RRIRGRPPRLPRPRPRPNGFPRP	0.0031
RRIRGRPPRLPRPRPRPNGNPRP	0.0103
RRIRGRPPRLPRPRPRPNHEPRP	0.0434
RRIRGRPPRLPRPRPRPNHFPRP	-0.0611
RRIRGRPPRLPRPRPRPNHWPRP	0.309
RRIRGRPPRLPRPRPRPNIQPRP	0.398
RRIRGRPPRLPRPRPRPNKWPRP	0.0346
RRIRGRPPRLPRPRPRPNLGPRP	0.191
RRIRGRPPRLPRPRPRPNMPPRP	-0.317
RRIRGRPPRLPRPRPRPNNGPRP	-0.363
RRIRGRPPRLPRPRPRPNPSPRP	0.294
RRIRGRPPRLPRPRPRPNRVPRP	0.0309
RRIRGRPPRLPRPRPRPNSGPRP	0.00625
RRIRGRPPRLPRPRPRPNSSPRP	-0.00499
RRIRGRPPRLPRPRPRPNSVPRP	-0.0052
RRIRGRPPRLPRPRPRPNTNPRP	0.256
RRIRGRPPRLPRPRPRPNVKPRP	0.292
RRIRGRPPRLPRPRPRPNVPPRP	0.0564
RRIRGRPPRLPRPRPRPNVRPRP	0.265
RRIRGRPPRLPRPRPRPPADPRP	1.59
RRIRGRPPRLPRPRPRPPAEPRP	1.64

Sequence	shrunken log2 fold change
RRIRGRPPRLPRPRPRPPDKPRP	1.17
RRIRGRPPRLPRPRPRPPEPPRP	0.397
RRIRGRPPRLPRPRPRPPESPRP	0.873
RRIRGRPPRLPRPRPRPPEWPRP	1.13
RRIRGRPPRLPRPRPRPPGWPRP	1.04
RRIRGRPPRLPRPRPRPPHQPRP	0.806
RRIRGRPPRLPRPRPRPPKHPRP	0.567
RRIRGRPPRLPRPRPRPPKIPRP	0.835
RRIRGRPPRLPRPRPRPPKYPRP	0.0508
RRIRGRPPRLPRPRPRPPLHPRP	0.501
RRIRGRPPRLPRPRPRPPMNPRP	0.464
RRIRGRPPRLPRPRPRPPNCPRP	0.266
RRIRGRPPRLPRPRPRPPPRPRP	1.69
RRIRGRPPRLPRPRPRPPRAPRP	1.25
RRIRGRPPRLPRPRPRPPRNPRP	1.1
RRIRGRPPRLPRPRPRPPSPPRP	1.01
RRIRGRPPRLPRPRPRPPTCPRP	0.172
RRIRGRPPRLPRPRPRPPTEPRP	1.04
RRIRGRPPRLPRPRPRPPVKPRP	0.678
RRIRGRPPRLPRPRPRPPWEPRP	0.528
RRIRGRPPRLPRPRPRPPWVPRP	0.753
RRIRGRPPRLPRPRPRPPWWPRP	0.953
RRIRGRPPRLPRPRPRPPYLPRP	-0.0342
RRIRGRPPRLPRPRPRPPYVPRP	-0.21
RRIRGRPPRLPRPRPRPQCHPRP	0.48

Sequence	shrunken log2 fold change
RRIRGRPPRLPRPRPRPQCTPRP	0.085
RRIRGRPPRLPRPRPRPQEFPRP	0.27
RRIRGRPPRLPRPRPRPQESPRP	-0.0432
RRIRGRPPRLPRPRPRPQFGPRP	0.0436
RRIRGRPPRLPRPRPRPQGQPRP	0.414
RRIRGRPPRLPRPRPRPQHDPRP	-0.000778
RRIRGRPPRLPRPRPRPQHNPRP	-0.186
RRIRGRPPRLPRPRPRPQILPRP	-0.0843
RRIRGRPPRLPRPRPRPQKCPRP	0.122
RRIRGRPPRLPRPRPRPQKNPRP	0.368
RRIRGRPPRLPRPRPRPQKWPRP	0.0681
RRIRGRPPRLPRPRPRPQKYPRP	-0.0606
RRIRGRPPRLPRPRPRPQMLPRP	-0.0638
RRIRGRPPRLPRPRPRPQMNPRP	0.355
RRIRGRPPRLPRPRPRPQNLPRP	-0.34
RRIRGRPPRLPRPRPRPQQMPRP	0.287
RRIRGRPPRLPRPRPRPQREPRP	0.225
RRIRGRPPRLPRPRPRPQRQPRP	0.687
RRIRGRPPRLPRPRPRPQSLPRP	0.251
RRIRGRPPRLPRPRPRPQTVPRP	0.19
RRIRGRPPRLPRPRPRPQVGPRP	0.395
RRIRGRPPRLPRPRPRPQVIPRP	-0.0421
RRIRGRPPRLPRPRPRPQYEPRP	0.0238
RRIRGRPPRLPRPRPRPQYVPRP	-0.0061
RRIRGRPPRLPRPRPRPRCIPRP	0.273
